This is an account of results in the supplement of paper PMC10567573.

First the molecules themselves.
B1: FBXO39 (parent)
chain: RVFKARIYTNRYETNEEDKTLQEI
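Note: lentivirally expressed fusions sorted by FACS into six bins by GFP to DsRed ratio, PSI derived from sequencing read proportions per bin multiplied by bin number.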

The variants in this data set derive from B1. The data set can be described thus: protein stability index of a GFP-peptide fusion (GPS, HEK-293T) (PSI 1-6); higher = more stable. Particulars: c terminus: a fixed tail appended.
With RVFKARIYTNRYETNEEDMTLQEI [K19M], the protein stability index was 2.3. With RVFKARIYTNRYETNEEDATLQEI [K19A] the figure was 2.15; with RVFKARIYTNRYETNEEDITLQEI [K19I], 2.58; with RVFKARIYTNRYETNEEDFTLQEI [K19F], 2.61.

On to RVFKARIYTNRYETNEEDHTLQEI [K19H], for which the protein stability index was 2.92. Under RVFKARIYTNRYETNEEDGTLQEI [K19G] stands 3.62; under RVFKARIYTNRYECNEEDKTLQEI [T14C], 2. Under RVFKARIYTNRYEANEEDKTLQEI [T14A] stands 1.65. Turning to RVFKARIYTNRYERNEEDKTLQEI [T14R], the protein stability index came out at 2.36. Under RVFKARIYTNRYEFNEEDKTLQEI [T14F] stands 2.52; under RVFKARIYTNRYEPNEEDKTLQEI [T14P], 3.2. Consider RVFKARIYTNRYENNEEDKTLQEI [T14N], for which the protein stability index is 2.21. With RVFKARIYTNRYEQNEEDKTLQEI [T14Q] the figure was 2.62; with RVFKARIYTNRYEKNEEDKTLQEI [T14K], 2.5; with RVFKARIYTNRYESNEEDKTLQEI [T14S], 3.12. Under RVFKARIYTNRYEWNEEDKTLQEI [T14W] stands 1.66; under RVFKARIYTNRYEDNEEDKTLQEI [T14D], 3.34.

For RVFKARIYTNRYEVNEEDKTLQEI [T14V], the protein stability index was 2.06. With RVFKARIYTNRYEINEEDKTLQEI [T14I] the figure was 2.28; with RVFKARIYTNRYEYNEEDKTLQEI [T14Y], 2.67; with RVFKARIYTNRYEENEEDKTLQEI [T14E], 2.62. Consider RVFKARIYTNRYEMNEEDKTLQEI [T14M], for which the protein stability index is 3.75. Consider RVFKARIYTNRYEHNEEDKTLQEI [T14H], for which the protein stability index stood at 2.5.

Take RVFKARIYTNRYEGNEEDKTLQEI [T14G]: the protein stability index was 2.29. Under RVFKARIYTNRYELNEEDKTLQEI [T14L] stands 3.06; under RVFKARIYTNRYETNGEDKTLQEI [E16G], 2.33; under RVFKARIYTNRYETNNEDKTLQEI [E16N], 1.74. Under RVFKARIYTNRYETNHEDKTLQEI [E16H] stands 2.58. For RVFKARIYTNRYETNIEDKTLQEI [E16I], the protein stability index turned out to be 3.1.

RVFKARIYTNRYETNDEDKTLQEI [E16D]: the protein stability index turned out to be 2.88. On to RVFKARIYTNRYETNSEDKTLQEI [E16S], for which the protein stability index amounted to 2.6. On to RVFKARIYTNRYETNCEDKTLQEI [E16C], for which the protein stability index stood at 2.38. Under RVFKARIYTNRYETNQEDKTLQEI [E16Q] stands 2.08. With RVFKARIYTNRYETNTEDKTLQEI [E16T] the figure was 2.28; with RVFKARIYTNRYETNREDKTLQEI [E16R], 2.33. With RVFKARIYTNRYETNPEDKTLQEI [E16P] the figure was 1.89. Take RVFKARIYTNRYETNAEDKTLQEI [E16A]: the protein stability index stood at 2.2. Under RVFKARIYTNRYETNWEDKTLQEI [E16W] stands 2.27; under RVFKARIYTNRYETNFEDKTLQEI [E16F], 1.45; under RVFKARIYTNRYETNYEDKTLQEI [E16Y], 1.29. With RVFKARIYTNRYETNVEDKTLQEI [E16V], the protein stability index stood at 1.92. With RVFKARIYTNRYETNLEDKTLQEI [E16L] the figure was 1.75.

For the variant RVFKARIYTNRYETFEEDKTLQEI [N15F], the protein stability index was 1.99. With RVFKARIYTNRYETMEEDKTLQEI [N15M] the figure was 3.15; with RVFKARIYTNRYETPEEDKTLQEI [N15P], 3.01; with RVFKARIYTNRYETDEEDKTLQEI [N15D], 2.86. Under RVFKARIYTNRYETWEEDKTLQEI [N15W] stands 2.61; under RVFKARIYTNRYETTEEDKTLQEI [N15T], 3; under RVFKARIYTNRYETCEEDKTLQEI [N15C], 1.86. Under RVFKARIYTNRYETAEEDKTLQEI [N15A] stands 2.92.

Take RVFKARIYTNRYETQEEDKTLQEI [N15Q]: the protein stability index came to 2.55. For the variant RVFKARIYTNRYETSEEDKTLQEI [N15S], the protein stability index is 3.14. With RVFKARIYTNRYETVEEDKTLQEI [N15V] the figure was 2.12. Under RVFKARIYTNRYETLEEDKTLQEI [N15L] stands 2.27; under RVFKARIYTNRYETGEEDKTLQEI [N15G], 2.5; under RVFKARIYTNRYETYEEDKTLQEI [N15Y], 2.06. With RVFKARIYTNRYETEEEDKTLQEI [N15E] the figure was 2.96.

Take RVFKARIYTNRYETHEEDKTLQEI [N15H]: the protein stability index is 3.27. With RVFKARIYTNRYETIEEDKTLQEI [N15I] the figure was 2.9; with RVFKARIYTNRYETKEEDKTLQEI [N15K], 2.28.

With RVFKARIYTNRYITNEEDKTLQEI [E13I], the protein stability index was 1.92. Under RVFKARIYTNRYTTNEEDKTLQEI [E13T] stands 2.15. RVFKARIYTNRYGTNEEDKTLQEI [E13G]: the protein stability index amounted to 2.81. Under RVFKARIYTNRYRTNEEDKTLQEI [E13R] stands 2.79. For the variant RVFKARIYTNRYDTNEEDKTLQEI [E13D], the protein stability index is 2.48. With RVFKARIYTNRYHTNEEDKTLQEI [E13H] the figure was 1.85; with RVFKARIYTNRYVTNEEDKTLQEI [E13V], 1.99; with RVFKARIYTNRYWTNEEDKTLQEI [E13W], 2.53. With RVFKARIYTNRYLTNEEDKTLQEI [E13L] the figure was 3.1; with RVFKARIYTNRYFTNEEDKTLQEI [E13F], 2.07; with RVFKARIYTNRYNTNEEDKTLQEI [E13N], 2. With RVFKARIYTNRYMTNEEDKTLQEI [E13M], the protein stability index is 2.6. With RVFKARIYTNRYKTNEEDKTLQEI [E13K] the figure was 2.4; with RVFKARIYTNRYYTNEEDKTLQEI [E13Y], 1.69; with RVFKARIYTNRYQTNEEDKTLQEI [E13Q], 2.98.

For the variant RVFKARIYTNRYATNEEDKTLQEI [E13A], the protein stability index is 3.08.

In the case of RVFKARIYTNRYSTNEEDKTLQEI [E13S], the protein stability index came out at 2.81. Under RVFKARIYTNRQETNEEDKTLQEI [Y12Q] stands 3.88; under RVFKARIYTNRAETNEEDKTLQEI [Y12A], 3.15; under RVFKARIYTNRIETNEEDKTLQEI [Y12I], 3.29. Turning to RVFKARIYTNRTETNEEDKTLQEI [Y12T], the protein stability index is 3.29. Under RVFKARIYTNRLETNEEDKTLQEI [Y12L] stands 2.1. With RVFKARIYTNRNETNEEDKTLQEI [Y12N] the figure was 3.13; with RVFKARIYTNRCETNEEDKTLQEI [Y12C], 2.07; with RVFKARIYTNRKETNEEDKTLQEI [Y12K], 2.99. Regarding RVFKARIYTNRSETNEEDKTLQEI [Y12S], the protein stability index is 3.36. With RVFKARIYTNRDETNEEDKTLQEI [Y12D] the figure was 3.89; with RVFKARIYTNRWETNEEDKTLQEI [Y12W], 2.34; with RVFKARIYTNRHETNEEDKTLQEI [Y12H], 2.79. Under RVFKARIYTNRFETNEEDKTLQEI [Y12F] stands 3.33; under RVFKARIYTNRMETNEEDKTLQEI [Y12M], 2.13; under RVFKARIYTNRPETNEEDKTLQEI [Y12P], 2.91. For RVFKARIYTNREETNEEDKTLQEI [Y12E], the protein stability index was found to be 3.58. Under RVFKARIYTNRGETNEEDKTLQEI [Y12G] stands 3.13.
